The subject of series [1] is HeLa Kyoto. Nature of the series: melting temperature (median over replicates), in situ; higher = more thermally stable.
The subject of series [2] is HeLa Kyoto. Nature of the series: solubility change mitosis vs G1/S (difference of NP-40 vs SDS log2 ratios) (log2 ratio difference); higher = more soluble in mitosis.
The subject of series [3] is HeLa Kyoto. Briefly: thermal stability score vs G1/S (z-score of summed log2 fold changes over temperatures); higher = more thermally stable than in G1/S.
Series [4] concerns HeLa Kyoto. Briefly: solubility in G1/S (NP-40 vs SDS abundance) (log2 ratio); higher = more soluble. The following applies: cell cycle stage: G1/S.
Where [5] appears, read: cell cycle stage: early G1 (4.5 h after nocodazole release).
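For melting temperature (median over replicates), in situ in this document: HeLa Kyoto cells synchronized by double thymidine or nocodazole block, proteins quantified by TMT10plex mass spectrometry, three independent biological replicates.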
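For solubility change mitosis vs G1/S (difference of NP-40 vs SDS log2 ratios) in this document: synchronized HeLa Kyoto cells (double thymidine block for G1/S, nocodazole release for mitosis), protein amounts in NP-40 versus SDS lysates quantified by mass spectrometry, three biological replicates.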
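For solubility in G1/S (NP-40 vs SDS abundance) in this document: HeLa Kyoto cells arrested at G1/S by double thymidine block, proteins quantified by TMT10plex mass spectrometry in mild NP-40 versus SDS extracts, three biological replicates.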
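For thermal stability score vs G1/S (z-score of summed log2 fold changes over temperatures) in this document: synchronized HeLa Kyoto cells, proteins quantified by TMT10plex mass spectrometry, three biological replicates, mitosis taken 0.5 h after nocodazole release, G1/S directly after double thymidine block.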

YES1, sequence (chain, as listed by the source): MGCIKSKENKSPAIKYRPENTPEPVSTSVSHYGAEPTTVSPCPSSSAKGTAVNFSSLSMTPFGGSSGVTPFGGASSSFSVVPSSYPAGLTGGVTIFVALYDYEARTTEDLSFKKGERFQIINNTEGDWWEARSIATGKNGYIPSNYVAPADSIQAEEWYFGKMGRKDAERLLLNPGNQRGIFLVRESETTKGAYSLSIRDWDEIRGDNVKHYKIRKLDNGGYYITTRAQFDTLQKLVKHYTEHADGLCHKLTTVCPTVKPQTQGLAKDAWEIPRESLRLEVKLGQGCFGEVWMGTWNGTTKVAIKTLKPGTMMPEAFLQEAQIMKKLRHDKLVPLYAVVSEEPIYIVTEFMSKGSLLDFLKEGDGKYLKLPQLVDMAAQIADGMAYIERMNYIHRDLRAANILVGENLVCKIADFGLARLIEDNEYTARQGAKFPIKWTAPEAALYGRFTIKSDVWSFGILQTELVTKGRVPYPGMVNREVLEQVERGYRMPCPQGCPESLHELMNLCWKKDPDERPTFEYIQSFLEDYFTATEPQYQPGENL

In the case of “MADNEKLDNQRLKNFKNKGRDLETMRRQRNEVVVELRKNKRDEHLLKRRNVPHEDICEDSDIDGDYRVQNTSLEAIVQNASSDNQGIQLSAVQAARKLLSSDRNPPIDDLIKSGILPILVHCLERDDNPSLQFEAAWALTNIASGTSEQTQAVVQSNAVPLFLRLLHSPHQNVCEQAVWALGNIIGDGPQCRDYVISLGVVKPLLSFISPSIPITFLRNVTWVMVNLCRHKDPPPPMETIQEILPALCVLIHHTDVNILVDTVWALSYLTDAGNEQIQMVIDSGIVPHLVPLLSHQEVKVQTAALRAVGNIVTGTDEQTQVVLNCDALSHFPALLTHPKEKINKEAVWFLSNITAGNQQQVQAVIDANLVPMIIHLLDKGDFGTQKEAAWAISNLTISGRKDQVAYLIQQNVIPPFCNLLTVKDAQVVQVVLDGLSNILKMAEDEAETIGNLIEECGGLEKIEQLQNHENEDIYKLAYEIIDQFFSSDDIDEDPSLVPEAIQGGTFGFNSSANVPTEGFQF [KPNA4]”, the melting temperature came out at 52.3 °C in the series on HeLa Kyoto [1] (cell cycle stage: G1/S) and 51.9 °C with HeLa Kyoto [1] (cell cycle stage: mitosis). Besides, in the series with HeLa Kyoto [2], the “solubility change mitosis (log2)” value is -0.0591. In addition, the thermal stability score in the series on HeLa Kyoto [3] (setting [5]) was -0.466; with HeLa Kyoto [3] (cell cycle stage: mitosis), -0.221. Also, the “solubility in G1/S (log2)” value in the series on HeLa Kyoto [4] was found to be 0.0932.
Regarding YES1, the melting temperature is 51.2 °C with HeLa Kyoto [1] (cell cycle stage: G1/S) and 50.9 °C in the series with HeLa Kyoto [1] (cell cycle stage: mitosis). For the same substance, the “solubility change mitosis (log2)” value in the series with HeLa Kyoto [2] worked out at 0.0165. Besides, the thermal stability score in the series with HeLa Kyoto [3] (setting [5]) stood at 0.418; in the series on HeLa Kyoto [3] (cell cycle stage: mitosis) it was 0.409. For the same substance, the “solubility in G1/S (log2)” value in the series with HeLa Kyoto [4] is -0.536.
As to “MTTEKSLVTEAENSQHQQKEEGEEAINSGQQEPQQEESCQTAAEGDNWCEQKLKASNGDTPTHEDLTKNKERTSESRGLSRLFSSFLKRPKSQVSEEEGKEVESDKEKGEGGQKEIEFGTSLDEEIILKAPIAAPEPELKTDPSLDLHSLSSAETQPAQEELREDPDFEIKEGEGLEECSKIEVKEESPQSKAETELKASQKPIRKHRNMHCKVSLLDDTVYECVVEKHAKGQDLLKRVCEHLNLLEEDYFGLAIWDNATSKTWLDSAKEIKKQVRGVPWNFTFNVKFYPPDPAQLTEDITRYYLCLQLRQDIVAGRLPCSFATLALLGSYTIQSELGDYDPELHGVDYVSDFKLAPNQTKELEEKVMELHKSYRSMTPAQADLEFLENAKKLSMYGVDLHKAKDLEGVDIILGVCSSGLLVYKDKLRINRFPWPKVLKISYKRSSFFIKIRPGEQEQYESTIGFKLPSYRAAKKLWKVCVEHHTFFRLTSTDTIPKSKFLALGSKFRYSGRTQAQTRQASALIDRPAPHFERTASKRASRSLDGAAAVDSADRSPRPTSAPAITQGQVAEGGVLDASAKKTVVPKAQKETVKAEVKKEDEPPEQAEPEPTEAWKVEKTHIEVTVPTSNGDQTQKLAEKTEDLIRMRKKKRERLDGENIYIRHSNLMLEDLDKSQEEIKKHHASISELKKNFMESVPEPRPSEWDKRLSTHSPFRTLNINGQIPTGEGPPLVKTQTVTISDNANAVKSEIPTKDVPIVHTETKTITYEAAQTDDNSGDLDPGVLLTAQTITSETPSSTTTTQITKTVKGGISETRIEKRIVITGDADIDHDQVLVQAIKEAKEQHPDMSVTKVVVHQETEIADE [EPB41]”, the melting temperature in the series on HeLa Kyoto [1] (cell cycle stage: G1/S) and with HeLa Kyoto [1] (cell cycle stage: mitosis) was 51.6 °C in each case. Moreover, the “solubility change mitosis (log2)” value in the series on HeLa Kyoto [2] is -0.0541. The thermal stability score is -0.449 in the series on HeLa Kyoto [3] (setting [5]) and -0.552 in the series with HeLa Kyoto [3] (cell cycle stage: mitosis). In addition, in the series on HeLa Kyoto [4], the “solubility in G1/S (log2)” value was -0.0892.
For “MPSASCDTLLDDIEDIVSQEDSKPQDRHFVRKDVVPKVRRRNTQKYLQEEENSPPSDSTIPGIQKIWIRTWGCSHNNSDGEYMAGQLAAYGYKITENASDADLWLLNSCTVKNPAEDHFRNSIKKAQEENKKIVLAGCVPQAQPRQDYLKGLSIIGVQQIDRVVEVVEETIKGHSVRLLGQKKDNGRRLGGARLDLPKIRKNPLIEIISINTGCLNACTYCKTKHARGNLASYPIDELVDRAKQSFQEGVCEIWLTSEDTGAYGRDIGTNLPTLLWKLVEVIPEGAMLRLGMTNPPYILEHLEEMAKILNHPRVYAFLHIPVQSASDSVLMEMKREYCVADFKRVVDFLKEKVPGITIATDIICGFPGETDQDFQETVKLVEEYKFPSLFINQFYPRPGTPAAKMEQVPAQVKKQRTKDLSRVFHSYSPYDHKIGERQQVLVTEESFDSKFYVAHNQFYEQVLVPKNPAFMGKMVEVDIYESGKHFMKGQPVSDAKVYTPSISKPLAKGEVSGLTKDFRNGLGNQLSSGSHTSAASQCDSASSRMVLPMPRLHQDCALRMSVGLALLGLLFAFFVKVYN [CDKAL1]”, the melting temperature with HeLa Kyoto [1] (cell cycle stage: G1/S) was found to be 51.2 °C; with HeLa Kyoto [1] (cell cycle stage: mitosis), 50.7 °C. Besides, in the series with HeLa Kyoto [2], the “solubility change mitosis (log2)” value is -0.00551. The results for the thermal stability score in the series on HeLa Kyoto [3] (setting [5]) and in the series on HeLa Kyoto [3] (cell cycle stage: mitosis) were -2.9 and -1, respectively. For the same substance, the “solubility in G1/S (log2)” value in the series with HeLa Kyoto [4] worked out at 0.0175.
For the substance “MSDSGEQNYGERESRSASRSGSAHGSGKSARHTPARSRSKEDSRRSRSKSRSRSESRSRSRRSSRRHYTRSRSRSRSHRRSRSRSYSRDYRRRHSHSHSPMSTRRRHVGNRANPDPNCCLGVFGLSLYTTERDLREVFSKYGPIADVSIVYDQQSRRSRGFAFVYFENVDDAKEAKERANGMELDGRRIRVDFSITKRPHTPTPGIYMGRPTYGSSRRRDYYDRGYDRGYDDRDYYSRSYRGGGGGGGGWRAAQDRDQIYRRRSPSPYYSRGGYRSRSRSRSYSPRRY [TRA2B]”, the melting temperature amounted to 49.9 °C in the series on HeLa Kyoto [1] (cell cycle stage: G1/S) and 49.8 °C in the series on HeLa Kyoto [1] (cell cycle stage: mitosis). Moreover, the “solubility change mitosis (log2)” value with HeLa Kyoto [2] was 0.613. Besides, the thermal stability score with HeLa Kyoto [3] (setting [5]) is -1.69; with HeLa Kyoto [3] (cell cycle stage: mitosis), -4.47. For the same substance, in the series with HeLa Kyoto [4], the “solubility in G1/S (log2)” value was -1.17.
Turning to “MYFPSWLSQLYRGLSRPIRRTTQPIWGSLYRSLLQSSQRRIPEFSSFVVRTNTCGELRSSHLGQEVTLCGWIQYRRQNTFLVLRDFDGLVQVIIPQDESAASVKKILCEAPVESVVQVSGTVISRPAGQENPKMPTGEIEIKVKTAELLNACKKLPFEIKNFVKKTEALRLQYRYLDLRSFQMQYNLRLRSQMVMKMREYLCNLHGFVDIETPTLFKRTPGGAKEFLVPSREPGKFYSLPQSPQQFKQLLMVGGLDRYFQVARCYRDEGSRPDRQPEFTQIDIEMSFVDQTGIQSLIEGLLQYSWPNDKDPVVVPFPTMTFAEVLATYGTDKPDTRFGMKIIDISDVFRNTEIGFLQDALSKPHGTVKAICIPEGAKYLKRKDIESIRNFAADHFNQEILPVFLNANRNWNSPVANFIMESQRLELIRLMETQEEDVVLLTAGEHNKACSLLGKLRLECADLLETRGVVLRDPTLFSFLWVVDFPLFLPKEENPRELESAHHPFTAPHPSDIHLLYTEPKKARSQHYDLVLNGNEIGGGSIRIHNAELQRYILATLLKEDVKMLSHLLQALDYGAPPHGGIALGLDRLICLVTGSPSIRDVIAFPKSFRGHDLMSNTPDSVPPEELKPYHIRVSKPTDSKAERAH [DARS2]”, the results for the melting temperature in the series on HeLa Kyoto [1] (cell cycle stage: G1/S) and in the series on HeLa Kyoto [1] (cell cycle stage: mitosis) were 55.5 °C and 55.9 °C, respectively. Moreover, the “solubility change mitosis (log2)” value with HeLa Kyoto [2] is -0.114. Further, the figures for the thermal stability score in the series with HeLa Kyoto [3] (setting [5]) and in the series on HeLa Kyoto [3] (cell cycle stage: mitosis) were -0.868 and 0.237, respectively. Moreover, in the series on HeLa Kyoto [4], the “solubility in G1/S (log2)” value turned out to be 0.144.

(Values after the supplement of paper PMC5998384.)
